From the supplement of paper PMC10126150
± gives the standard deviation of the averaged measurements.

Test system: ATP
Assay: switch fluorescence ratio, 500 uM ATP over buffer (Cy3 cluster intensity, sum of 5 cycles each) (fold (ratio)); higher = stronger signal-on switching upon ATP binding; sequences stand for … in TCGTCGGCAGCGTCAGATGTGTATAAGAGACAGTTTTTTTTTTTTTTTTTTTTTTTTT…TC
Conditions: aptamer strand: ATP DNA aptamer (quencher-CACCTGGGGGAGTATTGCGGAGGAAGG + anchor), 100 nM annealed; ATP concentration: 500 uM
In short: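 Clusters with intensities outside 100-1000 RFU were excluded. The remaining Cy3-labelled switching-strand clusters on a modified Illumina MiSeq flow-cell had been annealed to 100 nM quencher-labelled ATP aptamer and imaged in selection buffer, then after 15 min with 500 uM ATP at 22 °C, for five cycles separated by NaOH stripping and re-annealing. The fluorescence ratio, averaged per switch-domain sequence, is each cluster's summed target-cycle Cy3 intensity over its summed buffer-cycle Cy3 intensity.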
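Further: ATP exposure 15 min at 22 °C before imaging.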

Sequence | switch fluorescence ratio
TTGTTGTGGG | 0.986 ± 0.024
TTGTTGTTTG | 1.03 ± 0.025
TTGTTTAAGT | 1.001 ± 0.0081
TTGTTTAATA | 1.02 ± 0.019
TTGTTTAATC | 1.036 ± 0.0097
TTGTTTAGCC | 0.989 ± 0.032
TTGTTTATGG | 0.983 ± 0.015
TTGTTTCAGG | 1.01 ± 0.018
TTGTTTCTTT | 1 ± 0.017
TTGTTTGAAA | 1 ± 0.064
TTGTTTGCCT | 1.04 ± 0.037
TTGTTTGGTT | 0.983 ± 0.034
TTGTTTTATT | 0.981 ± 0.038
TTGTTTTCCT | 1.02 ± 0.011
TTGTTTTCTT | 1 ± 0.045
TTGTTTTGTG | 0.978 ± 0.013
TTGTTTTTAG | 0.988 ± 0.04
TTGTTTTTCC | 1.03 ± 0.057
TTTAAAAA | 1.02 ± 0.044
TTTAAAAAGG | 0.982 ± 0.029
TTTAAAAGGG | 1 ± 0.027
TTTAAAATAG | 1.01 ± 0.019
TTTAAACTT | 1.63 ± 1.1

Sequence | switch fluorescence ratio
TTTAAACTTT | 1.013 ± 0.0075
TTTAAAGGTT | 1.02 ± 0.054
TTTAAATTAG | 0.969 ± 0.046
TTTAAATTTT | 1 ± 0.03
TTTAACGCCA | 1.082 ± 0.0028
TTTAACGGGG | 0.987 ± 0.034
TTTAACGTAC | 1.83 ± 0.15
TTTAACGTCG | 1.035 ± 0.005
TTTAAGAAGG | 1 ± 0.015
TTTAAGAATC | 0.994 ± 0.03
TTTAAGAGAT | 0.998 ± 0.028
TTTAAGATAT | 1.09 ± 0.074
TTTAAGCGCC | 0.966 ± 0.0085
TTTAAGGATT | 1.21 ± 0.33
TTTAAGGTTG | 0.986 ± 0.023
TTTAAGTAGG | 1.02 ± 0.048
TTTAAGTATT | 0.999 ± 0.02
TTTAAGTCGA | 1.02 ± 0.04
TTTAAGTGAG | 0.981 ± 0.021
TTTAATAGTG | 0.971 ± 0.014
TTTAATATGA | 0.997 ± 0.035
TTTAATCAGG | 1.04 ± 0.025
TTTAATTCT | 0.989 ± 0.022

Sequence | switch fluorescence ratio
TTTAATTGTA | 1.01 ± 0.044
TTTAATTTT | 1.04 ± 0.078
TTTAATTTTG | 1 ± 0.036
TTTACACGAT | 1.01 ± 0.019
TTTACAGAGT | 1.06 ± 0.12
TTTACAGCTT | 0.987 ± 0.027
TTTACAGGAT | 0.993 ± 0.024
TTTACCAGGG | 1.13 ± 0.085
TTTACCATAG | 1.06 ± 0.019
TTTACCCAGT | 1.04 ± 0.066
TTTACCCATC | 1.04 ± 0.033
TTTACCGGTA | 1.01 ± 0.023
TTTACCGTCT | 1.04 ± 0.018
TTTACCTATA | 1.02 ± 0.013
TTTACGAAGT | 0.966 ± 0.013
TTTACGCGTC | 1.16 ± 0.27
TTTACGGAGC | 1.37 ± 0.075
TTTACGGCGG | 0.987 ± 0.021
TTTACGGCGT | 0.994 ± 0.017
TTTACGGCTT | 1.05 ± 0.078
TTTACGGGGG | 1 ± 0.043
TTTACGTGCA | 1.04 ± 0.073
TTTACTATTT | 0.988 ± 0.035

Sequence | switch fluorescence ratio
TTTACTGCTT | 0.981 ± 0.044
TTTACTGGCT | 1.02 ± 0.0011
TTTAGAACGA | 1.01 ± 0.025
TTTAGAATTT | 1.01 ± 0.019
TTTAGACTGG | 1 ± 0.022
TTTAGAGCTT | 1.02 ± 0.024
TTTAGATAAA | 1.02 ± 0.017
TTTAGATATT | 0.98873 ± 0.00041
TTTAGATCAA | 1 ± 0.0019
TTTAGATGCT | 1.03 ± 0.099
TTTAGATTCA | 1.001 ± 0.0043
TTTAGCATGT | 1.04 ± 0.073
TTTAGCCGGG | 0.985 ± 0.014
TTTAGCCTCG | 0.992 ± 0.046
TTTAGCGGGG | 1.01 ± 0.016
TTTAGCTGCC | 1.16 ± 0.064
TTTAGCTTCA | 1.099 ± 0.0078
TTTAGCTTTA | 0.9735 ± 0.0092
TTTAGCTTTT | 1.04 ± 0.01
TTTAGGATCT | 0.954 ± 0.017
TTTAGGCAAA | 1.05 ± 0.12
TTTAGGCCCA | 1.03 ± 0.041
TTTAGGCGTT | 1.01 ± 0.057

Sequence | switch fluorescence ratio
TTTAGGCTTG | 1.02 ± 0.017
TTTAGGGGGC | 1.03 ± 0.032
TTTAGGGGTT | 1.02 ± 0.083
TTTAGGGTAT | 1.012 ± 0.0069
TTTAGGTGGC | 1.02 ± 0.009
TTTAGTAAAC | 1.08 ± 0.11
TTTAGTGCTT | 0.997 ± 0.03
TTTAGTTACG | 0.987 ± 0.013
TTTAGTTACT | 1.06 ± 0.022
TTTAGTTGAA | 0.988 ± 0.023
TTTAGTTTGT | 0.99 ± 0.036
TTTATAAAGA | 1.02 ± 0.059
TTTATAAAGT | 0.958 ± 0.032
TTTATAAGTA | 1.02 ± 0.026
TTTATAAGTT | 0.986 ± 0.023
TTTATAATCT | 1.05 ± 0.019
TTTATACGTT | 1.01 ± 0.044
TTTATACTTT | 1.06 ± 0.1
TTTATAGACT | 1.02 ± 0.0016
TTTATAGGAA | 1.02 ± 0.03
TTTATAGTGC | 1.01 ± 0.027
TTTATATAGA | 0.996 ± 0.033
TTTATATGGT | 0.988 ± 0.028

Sequence | switch fluorescence ratio
TTTATATTGG | 1.034 ± 0.00088
TTTATCAGAC | 1.07 ± 0.059
TTTATCATTG | 0.9909 ± 0.0086
TTTATGAAAT | 1.12 ± 0.19
TTTATGCCGT | 0.9505 ± 0.0022
TTTATGCTTT | 1.01 ± 0.024
TTTATGGAGT | 1.024 ± 0.0018
TTTATGGGTG | 1.01 ± 0.016
TTTATGTCTG | 1.01 ± 0.039
TTTATGTTAT | 1.1 ± 0.097
TTTATGTTGG | 0.979 ± 0.036
TTTATGTTTC | 0.98 ± 0.025
TTTATTAATG | 1.01 ± 0.026
TTTATTACTT | 1 ± 0.029
TTTATTATAT | 1.01 ± 0.031
TTTATTATGC | 1.03 ± 0.026
TTTATTATGG | 0.989 ± 0.032
TTTATTGGCT | 1 ± 0.051
TTTATTGGGC | 0.988 ± 0.053
TTTATTGTCA | 0.987 ± 0.029
TTTATTTAAT | 1.03 ± 0.035
TTTATTTACT | 1.011 ± 0.0036
TTTATTTGCG | 0.9875 ± 0.0067

Sequence | switch fluorescence ratio
TTTATTTTTT | 1 ± 0.039
TTTCAAAAGA | 1 ± 0.048
TTTCAAAGTA | 0.9657 ± 0.0071
TTTCAACGGT | 1.009 ± 0.0075
TTTCAATAGG | 1.01 ± 0.024
TTTCAATTTA | 0.996 ± 0.011
TTTCACACTC | 1.02 ± 0.03
TTTCACAGGA | 1.03 ± 0.025
TTTCACCGGG | 1.16 ± 0.17
TTTCACGAGC | 0.993 ± 0.091
TTTCACGGTA | 1.15 ± 0.11
TTTCAGAGTC | 1.01 ± 0.064
TTTCAGATGG | 1.006 ± 0.0093
TTTCAGCT | 0.977 ± 0.013
TTTCAGCTTA | 1.15 ± 0.15
TTTCAGGGGT | 1.86 ± 0.81
TTTCAGGTCC | 1.03 ± 0.065
TTTCAGGTTA | 1.06 ± 0.012
TTTCAGTCCC | 0.993 ± 0.052
